Source: publication PMC13184981 (ACS Chemical Biology, 2026)

Biological target: the molecule itself
Experiment: mass photometry

B1: Purified recombinant full-length LIMK1 (natural protein)
chain: MRLTLLCCTWREERMGEEGSELPVCASCGQRIYDGQYLQALNADWHADCFRCCDCSASLSHQYYEKDGQLFCKKDYWARYGESCHGCSEQITKGLVMVAGELKYHPECFICLTCGTFIGDGDTYTLVEHSKLYCGHCYYQTVVTPVIEQILPDSPGSHLPHTVTLVSIPASSHGKRGLSVSIDPPHGPPGCGTEHSHTVRVQGVDPGCMSPDVKNSIHVGDRILEINGTPIRNVPLDEIDLLIQETSRLLQLTLEHDPHDTLGHGLGPETSPLSSPAYTPSGEAGSSARQKPVLRSCSIDRSPGAGSLGSPASQRKDLGRSESLRVVCRPHRIFRPSDLIHGEVLGKGCFGQAIKVTHRETGEVMVMKELIRFDEETQRTFLKEVKVMRCLEHPNVLKFIGVLYKDKRLNFITEYIKGGTLRGIIKSMDSQYPWSQRVSFAKDIASGMAYLHSMNIIHRDLNSHNCLVRENKNVVVADFGLARLMVDEKTQPEGLRSLKKPDRKKRYTVVGNPYWMAPEMINGRSYDEKVDVFSFGIVLCEIIGRVNADPDYLPRTMDFGLNVRGFLDRYCPPNCPPSFFPITVRCCDLDPEKRPSFVKLEHWLETLRMHLAGHLPLGPQLEQLDRGFWETYRRGESGLPAHPEVPD
notes: source: insect cells, baculovirus, purified (Ni-NTA, SP Sepharose, TEV cleavage, SEC)
- stoichiometry N: 2
